Patent US20250250357A1 (NANJING ZAIMING PHARMACEUTICAL, published 2025)

How the values were obtained:
human MSLN-R3 protein [1] = molecular target: T1, human MSLN-R3 protein (human, UniProt Q13421 487-598); assay: ELISA on coated antigen, antibody 0.0001 nM
T1 construct: also called hMSLN-R3

[2] = molecular target: T2, human MSLN-hFc protein (Acro, Cat. No. MSN-H5253) (human, UniProt Q13421 296-580); assay: ELISA on coated antigen, antibody 0.0001 nM
T2 construct: the method names the coated protein as human MSLN-hFc (Acro); also called human MSLN full-length protein
T2 sequence (Q13421 other isoform, or with tags, fused parts or gaps limits assumed): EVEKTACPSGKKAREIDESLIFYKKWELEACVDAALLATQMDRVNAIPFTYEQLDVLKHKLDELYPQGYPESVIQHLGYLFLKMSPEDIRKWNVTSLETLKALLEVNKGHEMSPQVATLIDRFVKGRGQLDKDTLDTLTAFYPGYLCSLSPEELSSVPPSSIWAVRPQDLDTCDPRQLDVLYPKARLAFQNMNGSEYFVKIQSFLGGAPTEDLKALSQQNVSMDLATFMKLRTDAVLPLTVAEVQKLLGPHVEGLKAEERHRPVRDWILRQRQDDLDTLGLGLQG

[3] = molecular target: T2, human MSLN-hFc protein (Acro, Cat. No. …); assay: ELISA on coated antigen, antibody 100 nM
[4] = molecular target: T2, human MSLN-hFc protein (Acro, Cat. No. …); assay: ELISA on coated antigen, antibody 0.001 nM
human MSLN-R3 protein [5] = molecular target: T1, human MSLN-R3 protein; assay: ELISA on coated antigen, antibody 100 nM
human MSLN-R3 protein [6] = molecular target: T1, human MSLN-R3 protein; assay: ELISA on coated antigen, antibody 10 nM
human MSLN-R3 protein [7] = molecular target: T1, human MSLN-R3 protein; assay: ELISA on coated antigen, antibody 0.01 nM
[8] = molecular target: T2, human MSLN-hFc protein (Acro, Cat. No. …); assay: ELISA on coated antigen, antibody 0.1 nM
[9] = molecular target: T2, human MSLN-hFc protein (Acro, Cat. No. …); assay: ELISA on coated antigen, antibody 10 nM
human MSLN-R3 protein [10] = molecular target: T1, human MSLN-R3 protein; assay: ELISA on coated antigen, antibody 0.001 nM
human MSLN-R3 protein [11] = molecular target: T1, human MSLN-R3 protein; assay: ELISA on coated antigen, antibody 0.1 nM
human MSLN-R3 protein [12] = molecular target: T1, human MSLN-R3 protein; assay: ELISA on coated antigen, antibody 1 nM
[13] = molecular target: T2, human MSLN-hFc protein (Acro, Cat. No. …); assay: ELISA on coated antigen, antibody 0.01 nM
[14] = molecular target: T2, human MSLN-hFc protein (Acro, Cat. No. …); assay: ELISA on coated antigen, antibody 1 nM

T1 sequence (Q13421 495-606, form in doubt): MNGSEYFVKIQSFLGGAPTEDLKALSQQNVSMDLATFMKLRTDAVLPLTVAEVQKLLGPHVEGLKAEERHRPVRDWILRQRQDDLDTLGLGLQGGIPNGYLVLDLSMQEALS

| Binder | OD450 (human MSLN-R3 protein [1]) [OD450] | OD450 [2] [OD450] | OD450 [3] [OD450] | OD450 [4] [OD450] | OD450 (human MSLN-R3 protein [5]) [OD450] | OD450 (human MSLN-R3 protein [6]) [OD450] | OD450 (human MSLN-R3 protein [7]) [OD450] | OD450 [8] [OD450] | OD450 [9] [OD450] | OD450 (human MSLN-R3 protein [10]) [OD450] | OD450 (human MSLN-R3 protein [11]) [OD450] | OD450 (human MSLN-R3 protein [12]) [OD450] | OD450 [13] [OD450] | OD450 [14] [OD450] |
| --- | --- | --- | --- | --- | --- | --- | --- | --- | --- | --- | --- | --- | --- | --- |
| F7.33.24-H2 (scFv, not shown: small tags and cut ends, also called S009-F7.33.24 humanized antibody VH1 + VL2) scFv: EVQLVQSGAEVKKPGASVKVSCKASGYTFTSYWMHWVRQAPGQRLEWMGNVNPSNGGSNYNEKFKNRVTITVDKSASTAYMELSSLRSEDTAVYYCAPHYIGSRPGFAYWGQGTLVTVSSGGGGSGGGGSGGGGSDIVMTQTPLSLSVTPGQPASISCKASQNVGTNIAWYLQKPGQSPQALIYSASYRYSGVPDRFSGSGSGTDFTLKISRVEAEDVGVYYCQQYNSYPLTFGGGTKVEIK | 0.04 | 0.05 | 2.91 | 0.05 | 1.9 | 1.62 | 0.04 | 0.08 | 2.07 | 0.04 | 0.06 | 0.42 | 0.05 | 0.4 |
| F7.33.24-H3 (scFv, not shown: small tags and cut ends, also called S009-F7.33.24 humanized antibody VH1 + VL3) scFv: EVQLVQSGAEVKKPGASVKVSCKASGYTFTSYWMHWVRQAPGQRLEWMGNVNPSNGGSNYNEKFKNRVTITVDKSASTAYMELSSLRSEDTAVYYCAPHYIGSRPGFAYWGQGTLVTVSSGGGGSGGGGSGGGGSDIVMTQTPLSLSVTPGQPASISCKASQNVGTNIAWYQQKPGQSPQALIYSASYRYSGVPDRFSGSGSGTDFTLKISRVEAEDVGVYYCQQYNSYPLTFGGGTKVEIK | 0.04 | 0.05 | 2.93 | 0.05 | 1.91 | 1.86 | 0.04 | 0.13 | 2.58 | 0.04 | 0.13 | 0.89 | 0.06 | 0.91 |
| F7.33.24-H5 (scFv, not shown: small tags and cut ends, also called S009-F7.33.24 humanized antibody VH1a + VL2) scFv: EVQLVQSGAEVKKPGASVKVSCKASGYTFTSYWMHWVRQAPGQRLEWMGNVNPSSGGSNYNEKFKNRVTITVDKSASTAYMELSSLRSEDTAVYYCAPHYIGSRPGFAYWGQGTLVTVSSGGGGSGGGGSGGGGSDIVMTQTPLSLSVTPGQPASISCKASQNVGTNIAWYLQKPGQSPQALIYSASYRYSGVPDRFSGSGSGTDFTLKISRVEAEDVGVYYCQQYNSYPLTFGGGTKVEIK | 0.04 | 0.05 | 2.85 | 0.05 | 1.92 | 1.53 | 0.04 | 0.07 | 1.91 | 0.04 | 0.06 | 0.39 | 0.04 | 0.33 |
| F7.33.24-H6 (scFv, not shown: small tags and cut ends, also called S009-F7.33.24 humanized antibody VH1a + VL3) scFv: EVQLVQSGAEVKKPGASVKVSCKASGYTFTSYWMHWVRQAPGQRLEWMGNVNPSSGGSNYNEKFKNRVTITVDKSASTAYMELSSLRSEDTAVYYCAPHYIGSRPGFAYWGQGTLVTVSSGGGGSGGGGSGGGGSDIVMTQTPLSLSVTPGQPASISCKASQNVGTNIAWYQQKPGQSPQALIYSASYRYSGVPDRFSGSGSGTDFTLKISRVEAEDVGVYYCQQYNSYPLTFGGGTKVEIK | 0.04 | 0.05 | 2.96 | 0.05 | 1.98 | 1.74 | 0.04 | 0.08 | 2.36 | 0.04 | 0.07 | 0.53 | 0.05 | 0.45 |
| F7.33.24-H1 (scFv, not shown: small tags and cut ends, also called S009-F7.33.24 humanized antibody VH1 + VL1) scFv: EVQLVQSGAEVKKPGASVKVSCKASGYTFTSYWMHWVRQAPGQRLEWMGNVNPSNGGSNYNEKFKNRVTITVDKSASTAYMELSSLRSEDTAVYYCAPHYIGSRPGFAYWGQGTLVTVSSGGGGSGGGGSGGGGSDIVMTQSPDSLAVSLGERATINCKASQNVGTNIAWYQQKPGQSPKALIYSASYRYSGVPDRFSGSGSGTDFTLTISSLQAEDVAVYYCQQYNSYPLTFGGGTKVEIK | 0.04 | 0.05 | 2.9 | 0.04 | 1.93 | 1.61 | 0.04 | 0.1 | 2.53 | 0.04 | 0.08 | 0.52 | 0.05 | 0.59 |
| F7.33.24-H4 (scFv, not shown: small tags and cut ends, also called S009-F7.33.24 humanized antibody VH1a + VL1) scFv: EVQLVQSGAEVKKPGASVKVSCKASGYTFTSYWMHWVRQAPGQRLEWMGNVNPSSGGSNYNEKFKNRVTITVDKSASTAYMELSSLRSEDTAVYYCAPHYIGSRPGFAYWGQGTLVTVSSGGGGSGGGGSGGGGSDIVMTQSPDSLAVSLGERATINCKASQNVGTNIAWYQQKPGQSPKALIYSASYRYSGVPDRFSGSGSGTDFTLTISSLQAEDVAVYYCQQYNSYPLTFGGGTKVEIK | 0.04 | 0.05 | 2.95 | 0.05 | 1.95 | 1.64 | 0.04 | 0.08 | 2.21 | 0.04 | 0.07 | 0.45 | 0.07 | 0.45 |

The next lines start with the values.

| OD450 (human MSLN-R3 protein [1]) [OD450] | OD450 [2] [OD450] | OD450 [3] [OD450] | OD450 [4] [OD450] | OD450 (human MSLN-R3 protein [5]) [OD450] | OD450 (human MSLN-R3 protein [6]) [OD450] | OD450 (human MSLN-R3 protein [7]) [OD450] | OD450 [8] [OD450] | OD450 [9] [OD450] | OD450 (human MSLN-R3 protein [10]) [OD450] | OD450 (human MSLN-R3 protein [11]) [OD450] | OD450 (human MSLN-R3 protein [12]) [OD450] | OD450 [13] [OD450] | OD450 [14] [OD450] | Binder |
| --- | --- | --- | --- | --- | --- | --- | --- | --- | --- | --- | --- | --- | --- | --- |
| 0.05 | 0.05 | 2.7 | 0.05 | 2.16 | 1.92 | 0.05 | 0.09 | 2.04 | 0.04 | 0.09 | 0.63 | 0.05 | 0.48 | F7.33.24-H8 (scFv, not shown: small tags and cut ends, also called S009-F7.33.24 humanized antibody VH2 + VL2) scFv: EVQLVQSGAEVKKPGASVKVSCKASGYTFTSYWMHWVRQAPGQGLEWMGNVNPSNGGSNYNEKFKNRVTITVDKSASTAYMELSSLRSEDTAVYYCAPHYIGSRPGFAYWGQGTLVTVSSGGGGSGGGGSGGGGSDIVMTQTPLSLSVTPGQPASISCKASQNVGTNIAWYLQKPGQSPQALIYSASYRYSGVPDRFSGSGSGTDFTLKISRVEAEDVGVYYCQQYNSYPLTFGGGTKVEIK |
| 0.04 | 0.05 | 2.78 | 0.04 | 2.25 | 2.08 | 0.05 | 0.1 | 2.49 | 0.04 | 0.11 | 0.82 | 0.05 | 0.66 | F7.33.24-H9 (scFv, not shown: small tags and cut ends, also called S009-F7.33.24 humanized antibody VH2 + VL3) scFv: EVQLVQSGAEVKKPGASVKVSCKASGYTFTSYWMHWVRQAPGQGLEWMGNVNPSNGGSNYNEKFKNRVTITVDKSASTAYMELSSLRSEDTAVYYCAPHYIGSRPGFAYWGQGTLVTVSSGGGGSGGGGSGGGGSDIVMTQTPLSLSVTPGQPASISCKASQNVGTNIAWYQQKPGQSPQALIYSASYRYSGVPDRFSGSGSGTDFTLKISRVEAEDVGVYYCQQYNSYPLTFGGGTKVEIK |
| 0.05 | 0.04 | 3.03 | 0.04 | 2.26 | 1.85 | 0.04 | 0.09 | 2.28 | 0.05 | 0.08 | 0.55 | 0.05 | 0.51 | F7.33.24-H10 (scFv, not shown: small tags and cut ends, also called S009-F7.33.24 humanized antibody VH2a + VL1) scFv: EVQLVQSGAEVKKPGASVKVSCKASGYTFTSYWMHWVRQAPGQGLEWMGNVNPSNAGSNYNEKFKNRVTITVDKSASTAYMELSSLRSEDTAVYYCAPHYIGSRPGFAYWGQGTLVTVSSGGGGSGGGGSGGGGSDIVMTQSPDSLAVSLGERATINCKASQNVGTNIAWYQQKPGQSPKALIYSASYRYSGVPDRFSGSGSGTDFTLTISSLQAEDVAVYYCQQYNSYPLTFGGGTKVEIK |
| 0.04 | 0.05 | 2.79 | 0.06 | 1.95 | 1.52 | 0.04 | 0.1 | 2.32 | 0.04 | 0.06 | 0.33 | 0.05 | 0.48 | F7.33.24-H7 (scFv, not shown: small tags and cut ends, also called S009-F7.33.24 humanized antibody VH2 + VL1) scFv: EVQLVQSGAEVKKPGASVKVSCKASGYTFTSYWMHWVRQAPGQGLEWMGNVNPSNGGSNYNEKFKNRVTITVDKSASTAYMELSSLRSEDTAVYYCAPHYIGSRPGFAYWGQGTLVTVSSGGGGSGGGGSGGGGSDIVMTQSPDSLAVSLGERATINCKASQNVGTNIAWYQQKPGQSPKALIYSASYRYSGVPDRFSGSGSGTDFTLTISSLQAEDVAVYYCQQYNSYPLTFGGGTKVEIK |
